What was measured:
[1] = target: T1, S. cerevisiae wild type Msh2-Msh6 (S. cerevisiae, UniProt P25847 1-964; Q03834 1-1242); assay: SPR; Biacore T100, 25°C; biotinylated 236 bp DNA (GC base pair, central TG mispair or +T insertion, lacO end blocked by 30 nM LacI) on a streptavidin SA chip; 20 nM Msh2-Msh6 or Msh2-Msh3 with 250 µM ATP injected for 100 s, then the same mixture with 40 nM Mlh1-Pms1 or Mlh1-Mlh2 for 150 s; 25 mM Tris-Cl pH 8.0, 4 mM MgCl2, 110 mM NaCl, 0.01% Igepal, 2 mM DTT, 2% glycerol; signal of the MutL homolog on DNA alone …; conditions: both partners purified
T1 construct: Msh2, S. cerevisiae, wild type, from the pET11 MSH2-MSH6 plasmid; Msh6, S. cerevisiae, wild type, from the pET11 MSH2-MSH6 plasmid; also called Msh2-Msh6 heterodimer; source: E. coli BL21 (DE) RIL, pET11 MSH2-MSH6 plasmid, purified according to a previously published procedure

S. cerevisiae Msh2-Msh3 = target: T2, S. cerevisiae Msh2-Msh3 (S. cerevisiae, UniProt P25847 1-964; P25336 1-1018); assay: as above; conditions: both partners purified
T2 construct: Msh2, S. cerevisiae, expressed from pRDK354 (pGAL1-10-MSH2 URA3); Msh3, S. cerevisiae, expressed from pRDK1596 (pGAL1-10 MSH3-FLAG LEU2); also called Msh2-Msh3 heterodimer; source: S. cerevisiae RDKY2418 with pRDK354 and pRDK1596, purified as described previously
T2 sequence (P25847 whole entry, chain 1 of 2): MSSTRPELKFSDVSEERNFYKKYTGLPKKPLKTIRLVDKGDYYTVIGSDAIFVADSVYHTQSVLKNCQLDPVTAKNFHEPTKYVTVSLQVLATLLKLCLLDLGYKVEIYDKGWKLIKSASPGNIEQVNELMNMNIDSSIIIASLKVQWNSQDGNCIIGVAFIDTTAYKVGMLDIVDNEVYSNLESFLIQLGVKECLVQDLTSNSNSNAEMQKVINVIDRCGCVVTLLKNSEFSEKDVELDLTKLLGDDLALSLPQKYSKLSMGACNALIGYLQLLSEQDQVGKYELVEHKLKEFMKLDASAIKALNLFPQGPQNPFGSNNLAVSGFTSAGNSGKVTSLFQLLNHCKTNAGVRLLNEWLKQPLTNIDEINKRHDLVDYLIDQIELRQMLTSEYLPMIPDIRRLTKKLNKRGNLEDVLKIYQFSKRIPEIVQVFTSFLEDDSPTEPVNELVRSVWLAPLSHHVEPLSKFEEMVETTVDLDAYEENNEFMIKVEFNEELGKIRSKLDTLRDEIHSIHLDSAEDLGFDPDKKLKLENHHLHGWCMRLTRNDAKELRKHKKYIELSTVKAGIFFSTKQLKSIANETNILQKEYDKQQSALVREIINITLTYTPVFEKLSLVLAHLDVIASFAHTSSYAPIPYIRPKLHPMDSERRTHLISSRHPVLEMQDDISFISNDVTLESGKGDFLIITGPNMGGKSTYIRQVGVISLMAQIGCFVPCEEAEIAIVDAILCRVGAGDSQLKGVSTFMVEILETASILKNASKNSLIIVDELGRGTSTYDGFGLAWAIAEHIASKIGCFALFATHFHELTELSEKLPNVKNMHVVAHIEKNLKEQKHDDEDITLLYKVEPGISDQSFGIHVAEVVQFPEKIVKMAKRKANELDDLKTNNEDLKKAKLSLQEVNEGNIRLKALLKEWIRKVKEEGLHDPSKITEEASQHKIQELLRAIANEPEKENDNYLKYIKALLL
T2 sequence (P25336 whole entry, chain 2 of 2): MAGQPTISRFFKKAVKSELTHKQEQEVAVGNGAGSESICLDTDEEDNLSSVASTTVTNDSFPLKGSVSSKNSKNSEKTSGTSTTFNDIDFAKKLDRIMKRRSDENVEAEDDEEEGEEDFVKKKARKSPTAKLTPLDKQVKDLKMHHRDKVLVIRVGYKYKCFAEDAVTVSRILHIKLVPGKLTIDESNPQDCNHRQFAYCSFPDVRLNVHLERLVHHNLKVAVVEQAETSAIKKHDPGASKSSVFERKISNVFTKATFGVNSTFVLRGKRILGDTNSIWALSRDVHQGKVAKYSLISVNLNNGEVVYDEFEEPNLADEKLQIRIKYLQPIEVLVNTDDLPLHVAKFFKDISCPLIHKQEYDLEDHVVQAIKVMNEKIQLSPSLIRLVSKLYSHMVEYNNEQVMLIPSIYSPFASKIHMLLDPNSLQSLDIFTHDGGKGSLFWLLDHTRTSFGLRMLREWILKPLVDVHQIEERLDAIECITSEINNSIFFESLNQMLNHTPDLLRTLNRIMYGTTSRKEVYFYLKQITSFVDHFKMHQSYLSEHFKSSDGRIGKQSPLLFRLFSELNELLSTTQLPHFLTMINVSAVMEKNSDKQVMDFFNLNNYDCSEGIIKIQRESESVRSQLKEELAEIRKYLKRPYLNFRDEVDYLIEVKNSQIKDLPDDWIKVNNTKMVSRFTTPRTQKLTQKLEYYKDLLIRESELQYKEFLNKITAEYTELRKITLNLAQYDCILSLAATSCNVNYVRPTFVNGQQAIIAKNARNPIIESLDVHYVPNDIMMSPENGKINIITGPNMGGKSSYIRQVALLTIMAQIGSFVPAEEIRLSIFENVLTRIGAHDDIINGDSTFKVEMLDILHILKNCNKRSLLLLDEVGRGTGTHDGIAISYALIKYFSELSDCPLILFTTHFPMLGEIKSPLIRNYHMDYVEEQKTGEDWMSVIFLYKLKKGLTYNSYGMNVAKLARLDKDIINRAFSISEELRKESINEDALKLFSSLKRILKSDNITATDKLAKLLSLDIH

T1 sequence (P25847 whole entry, chain 1 of 2): as the sequence (P25847 whole entry, chain 1 of 2) above
T1 sequence (Q03834 whole entry, chain 2 of 2): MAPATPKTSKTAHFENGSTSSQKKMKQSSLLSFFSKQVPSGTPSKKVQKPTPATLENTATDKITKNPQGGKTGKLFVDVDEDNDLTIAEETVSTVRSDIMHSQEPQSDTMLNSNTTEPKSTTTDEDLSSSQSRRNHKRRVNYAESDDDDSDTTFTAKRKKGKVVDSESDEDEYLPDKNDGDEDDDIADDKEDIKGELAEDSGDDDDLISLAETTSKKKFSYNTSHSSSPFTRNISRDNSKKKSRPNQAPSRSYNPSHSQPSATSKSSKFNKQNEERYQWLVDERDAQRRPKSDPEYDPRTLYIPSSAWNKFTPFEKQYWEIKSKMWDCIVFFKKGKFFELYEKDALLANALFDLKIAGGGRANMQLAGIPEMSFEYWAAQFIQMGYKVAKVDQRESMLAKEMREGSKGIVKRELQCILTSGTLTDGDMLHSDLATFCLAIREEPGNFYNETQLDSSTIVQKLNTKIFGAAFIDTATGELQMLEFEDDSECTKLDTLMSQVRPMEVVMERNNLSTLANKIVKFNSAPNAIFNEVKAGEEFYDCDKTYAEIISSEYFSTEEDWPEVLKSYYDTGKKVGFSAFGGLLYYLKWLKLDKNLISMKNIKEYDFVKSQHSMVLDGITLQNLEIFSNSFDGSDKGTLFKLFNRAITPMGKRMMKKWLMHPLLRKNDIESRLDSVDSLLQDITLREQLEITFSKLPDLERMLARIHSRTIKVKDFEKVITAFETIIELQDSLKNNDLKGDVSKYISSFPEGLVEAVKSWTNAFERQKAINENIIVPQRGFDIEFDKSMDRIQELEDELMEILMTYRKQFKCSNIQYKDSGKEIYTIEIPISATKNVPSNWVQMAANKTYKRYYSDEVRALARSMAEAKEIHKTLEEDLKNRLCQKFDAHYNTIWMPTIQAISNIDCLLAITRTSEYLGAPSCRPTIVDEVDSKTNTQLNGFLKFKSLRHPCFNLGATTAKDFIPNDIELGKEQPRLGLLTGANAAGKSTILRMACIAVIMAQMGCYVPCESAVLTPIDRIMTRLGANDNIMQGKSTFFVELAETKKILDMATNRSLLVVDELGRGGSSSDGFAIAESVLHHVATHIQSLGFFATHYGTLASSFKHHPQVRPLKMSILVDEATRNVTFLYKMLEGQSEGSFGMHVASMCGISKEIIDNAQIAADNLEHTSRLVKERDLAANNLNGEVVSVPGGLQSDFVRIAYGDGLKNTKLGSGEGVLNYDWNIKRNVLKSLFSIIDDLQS

| binding result [1] | binding result (S. cerevisiae Msh2-Msh3) | Binder |
| --- | --- | --- |
| binds | binds | S. cerevisiae Mlh1-Pms1 complex (complex, Mlh1, S. cerevisiae, expressed from pRDK573 (pGAL1-10-MLH1 TRP1); Pms1, S. cerevisiae, expressed from pRDK1099 (pGAL1-10-PMS1-FLAG LEU2); also called Mlh1-Pms1 heterodimer) chain 1: MSLRIKALDASVVNKIAAGEIIISPVNALKEMMENSIDANATMIDILVKEGGIKVLQITDNGSGINKADLPILCERFTTSKLQKFEDLSQIQTYGFRGEALASISHVARVTVTTKVKEDRCAWRVSYAEGKMLESPKPVAGKDGTTILVEDLFFNIPSRLRALRSHNDEYSKILDVVGRYAIHSKDIGFSCKKFGDSNYSLSVKPSYTVQDRIRTVFNKSVASNLITFHISKVEDLNLESVDGKVCNLNFISKKSISPIFFINNRLVTCDLLRRALNSVYSNYLPKGNRPFIYLGIVIDPAAVDVNVHPTKREVRFLSQDEIIEKIANQLHAELSAIDTSRTFKASSISTNKPESLIPFNDTIESDRNRKSLRQAQVVENSYTTANSQLRKAKRQENKLVRIDASQAKITSFLSSSQQFNFEGSSTKRQLSEPKVTNVSHSQEAEKLTLNESEQPRDANTINDNDLKDQPKKKQKLGDYKVPSIADDEKNALPISKDGYIRVPKERVNVNLTSIKKLREKVDDSIHRELTDIFANLNYVGVVDEERRLAAIQHDLKLFLIDYGSVCYELFYQIGLTDFANFGKINLQSTNVSDDIVLYNLLSEFDELNDDASKEKIISKIWDMSSMLNEYYSIELVNDGLDNDLKSVKLKSLPLLLKGYIPSLVKLPFFIYRLGKEVDWEDEQECLDGILREIALLYIPDMVPKVDTSDASLSEDEKAQFINRKEHISSLLEHVLFPCIKRRFLAPRHILKDVVEIANLPDLYKVFERC chain 2: MTQIHQINDIDVHRITSGQVITDLTTAVKELVDNSIDANANQIEIIFKDYGLESIECSDNGDGIDPSNYEFLALKHYTSKIAKFQDVAKVQTLGFRGEALSSLCGIAKLSVITTTSPPKADKLEYDMVGHITSKTTTSRNKGTTVLVSQLFHNLPVRQKEFSKTFKRQFTKCLTVIQGYAIINAAIKFSVWNITPKGKKNLILSTMRNSSMRKNISSVFGAGGMRGLEEVDLVLDLNPFKNRMLGKYTDDPDFLDLDYKIRVKGYISQNSFGCGRNSKDRQFIYVNKRPVEYSTLLKCCNEVYKTFNNVQFPAVFLNLELPMSLIDVNVTPDKRVILLHNERAVIDIFKTTLSDYYNRQELALPKRMCSQSEQQAQKRLKTEVFDDRSTTHESDNENYHTARSESNQSNHAHFNSTTGVIDKSNGTELTSVMDGNYTNVTDVIGSECEVSVDSSVVLDEGNSSTPTKKLPSIKTDSQNLSDLNLNNFSNPEFQNITSPDKARSLEKVVEEPVYFDIDGEKFQEKAVLSQADGLVFVDNECHEHTNDCCHQERRGSTDTEQDDEADSIYAEIEPVEINVRTPLKNSRKSISKDNYRSLSDGLTHRKFEDEILEYNLSTKNFKEISKNGKQMSSIISKRKSEAQENIIKNKDELEDFEQGEKYLTLTVSKNDFKKMEVVGQFNLGFIIVTRKVDNKYDLFIVDQHASDEKYNFETLQAVTVFKSQKLIIPQPVELSVIDELVVLDNLPVFEKNGFKLKIDEEEEFGSRVKLLSLPTSKQTLFDLGDFNELIHLIKEDGGLRRDNIRCSKIRSMFAMRACRSSIMIGKPLNKKTMTRVVHNLSELDKPWNCPHGRPTMRHLMELRDWSSFSKDYEI |
| binds | binds | S. cerevisiae Mlh1-Mlh2 complex (complex, Mlh1, S. cerevisiae, expressed from pRDK573 (pGAL1-10-MLH1 TRP1); Mlh2, S. cerevisiae, MLH2 ORF put in place of the PMS1 ORF of pRDK1099, giving pRDK1664 (pGAL1-10-Mlh2-FLAG LEU2); Purified as a preformed complex through the FLAG tag on Mlh2; used at 40 nM in the SPR assay; also called Mlh1-Mlh2 heterodimer) chain 1: MSLRIKALDASVVNKIAAGEIIISPVNALKEMMENSIDANATMIDILVKEGGIKVLQITDNGSGINKADLPILCERFTTSKLQKFEDLSQIQTYGFRGEALASISHVARVTVTTKVKEDRCAWRVSYAEGKMLESPKPVAGKDGTTILVEDLFFNIPSRLRALRSHNDEYSKILDVVGRYAIHSKDIGFSCKKFGDSNYSLSVKPSYTVQDRIRTVFNKSVASNLITFHISKVEDLNLESVDGKVCNLNFISKKSISPIFFINNRLVTCDLLRRALNSVYSNYLPKGNRPFIYLGIVIDPAAVDVNVHPTKREVRFLSQDEIIEKIANQLHAELSAIDTSRTFKASSISTNKPESLIPFNDTIESDRNRKSLRQAQVVENSYTTANSQLRKAKRQENKLVRIDASQAKITSFLSSSQQFNFEGSSTKRQLSEPKVTNVSHSQEAEKLTLNESEQPRDANTINDNDLKDQPKKKQKLGDYKVPSIADDEKNALPISKDGYIRVPKERVNVNLTSIKKLREKVDDSIHRELTDIFANLNYVGVVDEERRLAAIQHDLKLFLIDYGSVCYELFYQIGLTDFANFGKINLQSTNVSDDIVLYNLLSEFDELNDDASKEKIISKIWDMSSMLNEYYSIELVNDGLDNDLKSVKLKSLPLLLKGYIPSLVKLPFFIYRLGKEVDWEDEQECLDGILREIALLYIPDMVPKVDTSDASLSEDEKAQFINRKEHISSLLEHVLFPCIKRRFLAPRHILKDVVEIANLPDLYKVFERC chain 2: MTIHQLSPESQWKIVSSSFIYGPVAAVRELLDNSIDSGAKKVFIDVDSTTGGCEYISVKDDGSGVDIIDRPSMCLEYTTSKMSSLGDISILTTLGFRGEALFLLSNLCNQKGSMQVETKTADDVIGEKWLVDSKGGITNGKRYKVSCPVGTTVILRKLLGGLRARYLEISSRPRKTFDELIYLINHYSLIHRNIRFYFSLVSLQKNGAIERKQMQETLDPKISRARSLSLLARLKKPVPLNFIVEENFVIDEKINLDLILPRMVPESDVINIKRRFKFLSVNERALSLNLETGKTISKLLSSIYRDFSLLDPMVWFINLNCDTKLLDVNIEPEKNDVMIKSFEVIFKKIENKLKLLLEERIGIETNMLGDKHVQPSINEKTSPALVIPTPDAENEISKGCGAVSGKDKTDIPQKNSDLIVPTFYDEANLENTTIVAATPSPTKFSEDKALDEQTQLTISSYRSSSSGSMASEDSTNWRHNFQQELSENSEVAGAGSSTLPSSLTYNYIETIPENEDLELSKDASISNPFMITKIRNVNKKLSENLLEAKRTSCGDANKRGMPNERQLSNTEKKELIKLQQTYGKRNNTVDMTIPRNSKKKVTDNYIKKASCMHKTRPKLMHFSEYTNNYVYTLKNEKIVKHDSDNFAKETLWLRSRDDATSPSSSLLQALRAHVKKPGHIEATTNEWCLFTPDSP |

Reference: PMC4014439, “Mlh2 Is an Accessory Factor for DNA Mismatch Repair in Saccharomyces cerevisiae” (PLoS Genetics, 2014)
